No end group written: not given here.
Target: papain-like protease (PLpro), enzyme used in the in vitro enzyme assay (SARS-CoV-2, UniProt P0DTD1 1564-1878, limits assumed)
Experiment: cell-based or functional assay

Binder: SRLRGG-GRL0617 [peptide-drug conjugate RG-17 (polypeptide SRLRGG linked with GRL0617)]
- IC50, inhibition of PLpro activity in the in vitro enzyme assay (hydrolysis of substrate RLRGG-AMC, AMC fluorescence): 1400 nM

From US20240382604A1 (GUANGZHOU MEDICAL UNIVERSITY, published 2024)
